T1: HDP1 homeodomain-like (Plasmodium falciparum, UniProt Q8IKH4 2990-3078)
T1 sequence: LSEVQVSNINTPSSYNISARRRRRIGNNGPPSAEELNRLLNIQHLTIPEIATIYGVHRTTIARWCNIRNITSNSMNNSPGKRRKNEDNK

B1: GTGCAC_negctrl_site147 (dsDNA)
DNA 1: AGTAAAAAAAAAAAAAAAAAAAAAAAAAAAAAAAAA
DNA 2: TTTTTTTTTTTTTTTTTTTTTTTTTTTTTTTTTACT
B2: GTGCAC_negctrl_site162 (dsDNA)
DNA 1: TTTCTTATAGATTTTAATCCTCTATCAAAAAAAGAA
DNA 2: TTCTTTTTTTGATAGAGGATTAAAATCTATAAGAAA
B3: GTGCAC_negctrl_site230 (dsDNA)
DNA 1: TGTTGTTATAAAAAAAAAAAAAAAAAAAAAAAAAAA
DNA 2: TTTTTTTTTTTTTTTTTTTTTTTTTTTATAACAACA
B4: GTGCAC_negctrl_site152 (dsDNA)
DNA 1: ATTATTTAATTTTATTAAAAAAAAACAAATTAACAG
DNA 2: CTGTTAATTTGTTTTTTTTTAATAAAATTAAATAAT
B5: GTGCAC_negctrl_site639 (dsDNA)
DNA 1: AAATAATTTATAAATAAATACATTGTTACTTTTTCT
DNA 2: AGAAAAAGTAACAATGTATTTATTTATAAATTATTT
B6: GTGCAC_negctrl_site10 (dsDNA)
DNA 1: TGCCATATATATATTAAATACATAATAATGAGCCTA
DNA 2: TAGGCTCATTATTATGTATTTAATATATATATGGCA
B7: GTGCAC_negctrl_site550 (dsDNA)
DNA 1: AAAAAAAATAAAGAGAAAAAAAAAAGAAAATTATAT
DNA 2: ATATAATTTTCTTTTTTTTTTCTCTTTATTTTTTTT
B8: GTGCAC_negctrl_site190 (dsDNA)
DNA 1: TAGTTACTTCTTATATAAAATATGTATATAAAAATA
DNA 2: TATTTTTATATACATATTTTATATAAGAAGTAACTA
B9: GTGCAC_negctrl_site52 (dsDNA)
DNA 1: TTTTTACTATAATTAAAATTAACAAAAGAAAATGAT
DNA 2: ATCATTTTCTTTTGTTAATTTTAATTATAGTAAAAA
B10: GTGCAC_negctrl_site183 (dsDNA)
DNA 1: TGTATAGGTACAATAATTATAGAGTAATTGACATTA
DNA 2: TAATGTCAATTACTCTATAATTATTGTACCTATACA
B11: GTGCAC_negctrl_site459 (dsDNA)
DNA 1: TTTTTTAGATTACATAAATATAAATATAAATATATA
DNA 2: TATATATTTATATTTATATTTATGTAATCTAAAAAA
B12: GTGCAC_negctrl_site564 (dsDNA)
DNA 1: ATAATGAACAATATTATATATAAAATATAATTTATA
DNA 2: TATAAATTATATTTTATATATAATATTGTTCATTAT
B13: GTGCAC_negctrl_site474 (dsDNA)
DNA 1: ATAAAATATTAATTTTAAATTAATCAATATATATAA
DNA 2: TTATATATATTGATTAATTTAAAATTAATATTTTAT
B14: GTGCAC_negctrl_site542 (dsDNA)
DNA 1: AAAATCCAGTTTTCAAAATTGAACAAAAAAAAAATA
DNA 2: TATTTTTTTTTTGTTCAATTTTGAAAACTGGATTTT
B15: GTGCAC_negctrl_site20 (dsDNA)
DNA 1: TAGTTCCTCAAAAATTTCCTTTGTCATTTTATTCAC
DNA 2: GTGAATAAAATGACAAAGGAAATTTTTGAGGAACTA
B16: GTGCAC_negctrl_site405 (dsDNA)
DNA 1: TTTTTTATATTGATATTTATTAAATATGAAATGTTA
DNA 2: TAACATTTCATATTTAATAAATATCAATATAAAAAA
B17: GTGCAC_negctrl_site630 (dsDNA)
DNA 1: TTCTTTTCTTTTTTCTTTTTTTTTTTCTTTTCTTTT
DNA 2: AAAAGAAAAGAAAAAAAAAAAGAAAAAAGAAAAGAA
B18: GTGCAC_negctrl_site303 (dsDNA)
DNA 1: TCTTTTTTTTTTTTTTTTTCTTCTTCTCAATATAAA
DNA 2: TTTATATTGAGAAGAAGAAAAAAAAAAAAAAAAAGA
B19: GTGCAC_negctrl_site622 (dsDNA)
DNA 1: TTTTGAATATATTAAATAAATTAAAAATCTACAAAC
DNA 2: GTTTGTAGATTTTTAATTTATTTAATATATTCAAAA
B20: GTGCAC_negctrl_site73 (dsDNA)
DNA 1: AGCACACAAAAAAAAAAAAAAAAAAAAAAAGGAATG
DNA 2: CATTCCTTTTTTTTTTTTTTTTTTTTTTTGTGTGCT
B21: GTGCAC_negctrl_site77 (dsDNA)
DNA 1: TATTAAAATATGTCAGTTCTTAAAAAGTTGATGAGT
DNA 2: ACTCATCAACTTTTTAAGAACTGACATATTTTAATA
B22: GTGCAC_negctrl_site607 (dsDNA)
DNA 1: TTTTCATTTATGTATATATTTATTTTGATTTAATGT
DNA 2: ACATTAAATCAAAATAAATATATACATAAATGAAAA
B23: GTGCAC_negctrl_site352 (dsDNA)
DNA 1: TTTTTTTTTTTTTTTTTTTTCACATGTGTGGAAAAA
DNA 2: TTTTTCCACACATGTGAAAAAAAAAAAAAAAAAAAA
B24: GTGCAC_negctrl_site347 (dsDNA)
DNA 1: TTTTTTTTTATATAAAAAAAAATTTTTATTATTTTA
DNA 2: TAAAATAATAAAAATTTTTTTTTATATAAAAAAAAA
B25: GTGCAC_negctrl_site151 (dsDNA)
DNA 1: TTTGTTCTATGGAGTTTAAAATGTAATATATATTAA
DNA 2: TTAATATATATTACATTTTAAACTCCATAGAACAAA
B26: GTGCAC_negctrl_site710 (dsDNA)
DNA 1: AATATATTTTAGAGTTTTATATATTTTATGCATATA
DNA 2: TATATGCATAAAATATATAAAACTCTAAAATATATT
B27: GTGCAC_negctrl_site289 (dsDNA)
DNA 1: TTTTTAGAAAAGGTTATAAAAAATTAATTGAAAAAA
DNA 2: TTTTTTCAATTAATTTTTTATAACCTTTTCTAAAAA
B28: GTGCAC_negctrl_site221 (dsDNA)
DNA 1: ATATGTATAAGTATGTATATTTATTTATACTTATGT
DNA 2: ACATAAGTATAAATAAATATACATACTTATACATAT
B29: GTGCAC_negctrl_site236 (dsDNA)
DNA 1: TGTTAAAAGGTTAAATTAAAATAACCTCCGGAAATT
DNA 2: AATTTCCGGAGGTTATTTTAATTTAACCTTTTAACA
B30: GTGCAC_negctrl_site87 (dsDNA)
DNA 1: ATATATATAAAATATTATATTAAAAAAAATAAAATA
DNA 2: TATTTTATTTTTTTTAATATAATATTTTATATATAT

The target in the series is T1, HDP1 homeodomain-like. Nature of the series: gcPBM; about 25 ug protein; PBS, 1% milk, 0.2 mg/ml BSA, salmon testes DNA, 0.03% Triton X-100. Conditions: tags: N-terminal GST (pGEX-4T-1), kept; chain copies: 2; label: surface-attached array probe.
As to B1, the binding signal was 6.13 ln median PBM intensity, better of two orientations.

Regarding B2, the binding signal was 6.12 ln median PBM intensity, better of two orientations.

With B3, the binding signal was 6.26 ln median PBM intensity, better of two orientations.

With B4, the binding signal is 6.14 ln median PBM intensity, better of two orientations.

With B5, the binding signal is 6.13 ln median PBM intensity, better of two orientations.

With B6, the binding signal was 6.22 ln median PBM intensity, better of two orientations.

With B7, the binding signal is 6.22 ln median PBM intensity, better of two orientations.

Turning to B8, the binding signal was 6.17 ln median PBM intensity, better of two orientations.

Regarding B9, the binding signal was 6.13 ln median PBM intensity, better of two orientations.

As to B10, the binding signal was 6.21 ln median PBM intensity, better of two orientations.

Regarding B11, the binding signal was 6.12 ln median PBM intensity, better of two orientations.

Consider B12, for which the binding signal was 6.17 ln median PBM intensity, better of two orientations.

Take B13: the binding signal is 6.16 ln median PBM intensity, better of two orientations.

As for B14, the binding signal was 6.19 ln median PBM intensity, better of two orientations.

For B15, the binding signal was 6.25 ln median PBM intensity, better of two orientations.

For the molecule B16, the binding signal is 6.13 ln median PBM intensity, better of two orientations.

With B17, the binding signal is 6.08 ln median PBM intensity, better of two orientations.

For B18, the binding signal is 6.15 ln median PBM intensity, better of two orientations.

On to B19, for which the binding signal was 6.24 ln median PBM intensity, better of two orientations.

Take B20: the binding signal is 6.21 ln median PBM intensity, better of two orientations.

Take B21: the binding signal was 6.19 ln median PBM intensity, better of two orientations.

For the molecule B22, the binding signal is 6.11 ln median PBM intensity, better of two orientations.

B23: the binding signal is 6.23 ln median PBM intensity, better of two orientations.

Take B24: the binding signal is 6.12 ln median PBM intensity, better of two orientations.

Turning to B25, the binding signal was 6.25 ln median PBM intensity, better of two orientations.

For B26, the binding signal was 6.25 ln median PBM intensity, better of two orientations.

Turning to B27, the binding signal was 6.15 ln median PBM intensity, better of two orientations.

Regarding B28, the binding signal is 6.16 ln median PBM intensity, better of two orientations.

Regarding B29, the binding signal was 6.21 ln median PBM intensity, better of two orientations.

With B30, the binding signal is 6.1 ln median PBM intensity, better of two orientations.
